The record followed here is patent publication US20030091584A1 (AstraZeneca / MedImmune, published 2003).

Where “and” joins values, the source holds several entries; their conditions need not be identical. Equal entries are not always repeated.

Test [1] deals with T1, F protein of wild type RSV A/Long (respiratory syncytial virus strain …, UniProt P12568 26-574). As to the kind of experiment: cell-based or functional assay.
Test [2] deals with T1, F protein of wild type RSV A/Long. Put plainly: cell-based or functional assay. The source holds these as a separate data set.
The target in test [3] is RSV F protein (immobilized on the BIAcore sensor chip) (respiratory syncytial virus). Put plainly: BIAcore, immobilized F protein.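 Further: fab fragments as analytes binding F protein coupled to the chip via EDC/NHS chemistry, with blank surface signal subtracted.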

B1: A1e9 (Fab fragment) (Fab, V domains shown)
VH: QVTLRESGPALVKPTQTLTLTCTFSGFSLSTPGMSVGWIRQPPGKALEWLADIWWDGKKHYNPSLKDRLTISKDTSKNQVVLKVTNMDPADTATYYCARDMIFNWYFDVWGQGTTVTVSS
VL: DIQMTQSPSTLSASVGDRVTITCSLSSRVGYMHWYQQKPGKAPKLLIYDTFKLSSGVPSRFSGSGSGTEFTLTISSLQPDDFATYYCFQGSGYPFTFGGGTKVEIK
notes: Fab; also called *Ale9
As usually defined, the koff is the rate constant with which the complex falls apart. Read a high koff as fast dissociation. One may read the kon as the rate constant with which the complex forms. A low value points to slower complex formation. With B1, in test [1], the “Fold Difference (Control IC50)” value was 4 fold; the “Fold Difference (Curve IC50)” value was 3 fold; the “Mean IC50 (Control), RSV microneutralization” value (from here on “Mean IC50 (Control)”) is 0.125 µg/mL; the “Mean IC50 (Curve), RSV microneutralization” value (“Mean IC50 (Curve)” below) was 0.157 µg/mL. Moreover, the “EC50 (nM), in vitro microneutralization of RSV Long” value (“EC50 (nM)” for short) in test [2] amounted to 2.5 nM. In test [3], this molecule displayed a koff of 0.000453 s⁻¹ and a kon of 790000 M⁻¹ s⁻¹.

B2: A13a11 (Fab fragment) (Fab, V domains shown)
VH: QVTLRESGPALVKPTQTLTLTCTFSGFSLSTAGMSVGWIRQPPGKALEWLADIWWDDKKHYNPSLKDRLTISKDTSKNQVVLKVTNMDPADTATYYCARDMIFNWYFDVWGAGTTVTVSS
VL: DIQMTQSPSTLSASVGDRVTITCSASSSVGYMHWYQQKPGKAPKLLIYDTYRHASGVPSRFSGSGSGTEFTLTISSLQPDDFATYYCFQGSGYPFTFGGGTKLEIK
notes: Fab
For the molecule B2, in test [1], the “Fold Difference (Control IC50)” value turned out to be 5 fold; the “Fold Difference (Curve IC50)” value worked out at 4 fold; the “Mean IC50 (Control)” value is 0.102 µg/mL; the “Mean IC50 (Curve)” value was 0.12 µg/mL. Moreover, the “EC50 (nM)” value in test [2] is 2.04 nM. Besides, in test [3], the koff was 0.00025 s⁻¹ and the kon worked out at 735000 M⁻¹ s⁻¹.

B3: A12a6 (Fab fragment) (Fab, V domains shown)
VH: QVTLRESGPALVKPTQTLTLTCTFSGFSLSTAGMSVGWIRQPPGKALEWLADIWWDGKKDYNPSLKDRLTISKDTSKNQVVLKVTNMDPADTATYYCARDMIFNFYFDVWGQGTTVTVSS
VL: DIQMTQSPSTLSASVGDRVTITCSASSRVGYMHWYQQKPGKAPKLLIYDTFKLSSGVPSRFSGSGSGTEFTLTISSLQPDDFATYYCFQGSGYPFTFGGGTKVEIK
notes: Fab
Regarding B3, in test [1], the “Fold Difference (Control IC50)” value was found to be 17 fold; the “Fold Difference (Curve IC50)” value amounted to 16 fold; the “Mean IC50 (Control)” value worked out at 0.031 µg/mL; the “Mean IC50 (Curve)” value was determined as 0.0287 µg/mL. The “EC50 (nM)” value in test [2] turned out to be 0.62 nM. Besides, in test [3], the koff worked out at 0.00023 s⁻¹ and the kon worked out at 743000 M⁻¹ s⁻¹.

B4: A13c4 (Fab fragment) (Fab, V domains shown)
VH: QVTLRESGPALVKPTQTLTLTCTFSGFSLSTAGMSVGWIRQPPGKALEWLADIWWDGKKSYNPSLKDRLTISKDTSKNQVVLKVTNMDPADTATYYCARDMIFNFYFDVWGQGTTVTVSS
VL: DIQMTQSPSTLSASVGDRVTITCSLSSRVGYMHWYQQKPGKAPKLLIYDTMYQSSGVPSRFSGSGSGTEFTLTISSLQPDDFATYYCFQGSGYPFTFGGGTKVEIK
notes: Fab
For the molecule B4, in test [1], the “Fold Difference (Control IC50)” value was 21 fold; the “Fold Difference (Curve IC50)” value amounted to 17 fold; the “Mean IC50 (Control)” value amounted to 0.0258 µg/mL; the “Mean IC50 (Curve)” value worked out at 0.0264 µg/mL. In test [2], the “EC50 (nM)” value was 0.52 nM. Also, in test [3], the koff worked out at 0.00028 s⁻¹; the kon is 781000 M⁻¹ s⁻¹ and 735000 M⁻¹ s⁻¹.
